Laboratory results taken from the DeepSol protein solubility set.

Experiment: soluble on expression in E. coli; label from the status in PepcDB or PDB records

Row | Sequence | soluble on expression in E. coli
1 | AIANNSHTGFVGEMFGSSDILRSVSIPSEADKPMIVELAVAAMEELVRMAQTGDPLWVSSDNSVEILNEEEYFRTFPRGIGPKPIGLRSEASRESTVVIMNHINLIEILMDVNQWSSVFCGIVSRALTLEVLSTGVAGNYNGALQVMTAEFQVPSPLVPTRENYFVRYCKQHSDGIWAVVDVSLDSLRPSPITRSRRRPSGCLIQELQNGYSKVTWVEHIEVDDRSVHNMYKPLVNTGLAFGAKRWVATLDRQCERLASSMASNIPACDLSVITSPEGRKSMLKLAERMVMSFCTGVGASTAHAWTTLSTTGSDDVRVMTRKSV | soluble
2 | AIANSRAADQLELDGLPGTPPDFYRERQRSRVERYQSPAGAPLQCSVQVQTTQEHPLWTSHVWSGARALADTLCWQPELIAGKTVCELGAGAGLVSIVAFLAGADQVVATDYPDPEILNSLESNIREHTANSCSSETVKRASPKVVPYRWGDSPDSLQRCTGLQRFQVVLLADLLSFHQAHDALLRSVKMLLALPANDPTAVALVTFTHHRPHLAERDLAFFRLVNADGALIAEPWLSPLQMDPMFPDDPGDVCIRGQVHRWRLRWRSAASASANIPAHARNE | soluble
3 | AIARENEAVKPTIQAVYLAAGLSSRFGGRIKCLQEVGRHGETLLELSVRQLCEAYPAISSLVFVVSEATHLPIHALIGEQFYGLPVYFCVQRVPAWRKRPLGTVDALLAAREHIHGPFIVLNGDSLYGVAALSLVCNHITAAKTACMPGYKLREVLPKEGRVNRAIVQTDERHRVLEIVEQYNIGFEDIEEGRYTGDELTSMNVFGFHDTSIFARADERFRRFLSELEALRDDHHLQQQQQSVKRCSTDENDVYAHKEYILSTMLNELLHDAQIELMVLSCNSIRTPLELTNPGDFAFVKNHLDLVGL | soluble
4 | AIASSAIERKSLDPSEEPVDEVLQIPPSLLTCGGCQQNIGDRYFLKAIDQYWHEDCLSCDLCGCRLGEVGRRLYYKLGRKLCRRDYLRLFGQDGLCASCDKRIRAYEMTMRVKDKVYHLECFKCAACQKHFCVGDRYLLINSDIVCEQDIYEWTKINGMI | soluble
5 | AIATYPTNLEIIGGQGGSSFSFTGENNGASLEKIWVWVGGWQIKAVRAWLSDGRDETFGVPSGSHQEYVFTPGECFTSLSLWGNGAGTRLGAIKFKTNKGGEFFAHMTSWGLKTEYPMDVGSGYCLGIVGRGGSDIDCMGFMFLNAVQSTVLTNVNYPTINQLIPKVATEEIKSVSFENKTSVKQEQKVETSKKVIKTSSWSMTKSFSSTFSVEVSAGIPEIAEVSTGFSISFGVESTHSLEQTDEKNETLTTTVEVPPKKKVDVHITIGRASFDLPYTGTVKITCKNGSVLQYETKGQYKGVAYTDIKVNTVEKDL | soluble
6 | AKDWKWNLNWNGALNKNKVVSLPDNGLERNRQSAYQVYTGNGDEKKWVGGYQEGQRPGDLYMFVAEGLYKSQDEIPANLIDLTTGNNGSSGRPLYGGAEGYNKLTDSQKSNALPIQPGDVKWKDVNNDGVIDNYDMVKVGNTVPKWTGGINTTVSWKDLTLSARFDYALGFTAVDWKTMWIMSCAQGTYNTIEETKNTWTPENPNAKYPTYVWADQLGKRNYCRSSSMFAYNGNYIALRELSLSYKLPSILVQKAKLSNVELSITGQNLGYLTEAKHLFSPEKADNNGGYPLPRTVIFGINVSF | not soluble
7 | AKEKDTIRTEGVVTEALPNATFRVKLDSGPEILAYISGKMRMHYIRILPGDRVVVEITPYDPTRGRIVYRK | soluble
8 | AKKAMEQILIPVANPETIENLVNLALVIKDAKQKNGMIALNVINDNNSSENKELQGKRNLEKAAMIAAAADVPVTMVSRYDLNIASGIIHTIKEYEATDVVIGLHRKANIVDSFFGNLAESLLKGTHREVMIAKFLM | not soluble
9 | AKNECHPERTDGCQHFCLPGQESYTCSCAQGYRLGEDHKQCVPHDQCACGVLTSEKRAPDLQDLPWQVKLTNSEGKDFCGGVIIRENFVLTTAKCSLLHRNITVKTYFNRTSQDPLMIKITHVHVHMRYDADAGENDLSLLELEWPIQCPGAGLPVCTPEKDFAEHLLIPRTRGLLSGWARNGTDLGNSLTTRPVTLVEGEECGQVLNVTVTTRTYCERSSVAAMHWMDGSVVTREHRGSWFLTGVLGSQPVGGQAHMVLVTKVSRYSLWFKQIMNAHHHHHH | soluble
10 | AKTAAALHILVKEEKLALDLLEQIKNGADFGKLAKKHSICPSGKRGGDLGEFRQGQMVPAFDKVVFSCPVLEPTGPLHTQFGYHIIKVLYRN | soluble
11 | AKTTIIAGSAEAPQGSDIQVPVKIENADKVGSINLILSYPNVLEVEDVLQGSLTQNSLFDYQVEGNQIKVGIADSNGISGDGSLFYVKFRVTGNEKAEQAENVKGKLRGLGQQLSEITLRNSHALTLQGIEIYDIDGNSVKVATINGTFRIVSQEEAHHHHHH | soluble
12 | ALNPNEHQLIKNVFGFIDVTVRQVMTPRTSINAIDIDLPLEYVLNKIVNEGYSRLPVYKDNIDNIIGILYTKDLLKMMNKGEQIKLQSAMRQPYFVPETKKINELLKNLQAKHLHMAIIIDEFGGVSGITTIEDIIEELVGEIQDEHDDEAPVVEQVSA | not soluble
13 | ALVGDNLEQIDARLVNSLPLFKDQEGRDVNVRVGRYGPYLERQVGVSEDGEPEYQRANLSDSTTPDELTLELAEKLFATPQSGRELGRNPKNNRMIVAKEGRFGPYVTELVNDDERTEVEAKAEEIVAAEREAEDLQRAAEGKRAKNWGTKTAAAQKEKRIAQIIEETLKPSTASLFKTMEPSSVTLDEALQLLALPREVGVDPSDNEVITAQNGRYGPYLKKGSDSRTLASEDQIFSITLDEARRIYAEPKRRGRGATSQSVIKQLGDNDVSGKPMSVRDGRFGPYVTDGTTNASLRRGDDPTQLTEARANELLSERRAKEAADGGSSKKATKKASKKTTKRVAKAGARKKK | not soluble
14 | ALYGNSSGGVINVTSQTGAQPPTVEASSYYGSFGTWHYGMKATGAVGDGSHAGDVDYTVSTNRFTTHGYRDHSGARKNLANARLGVRINDVSKLTLLLNSVDIKANDAGGLTADEWRDNPRQSPRGDQYNTRKNTRQTQAGLRYERQLSAQDDLSVMMYAGERETTQFQSIPRAPQLKPSHAGGVIDLTRHYQGIDTRLTHRGELLVPVTLTAGLDYENMSERRKGYENFVMVNGAPQYGEQGALRRNERNLMWNVDPYLQTQWQLTDKLSLDAGVRYSSVWFDSNDYYITPGNGDDSGDASYHKWLPAGSLKYALTDAWNVYLSAGRGFETPTINELSYRSDNQSGLNFGLKPSTNDTVEIGSKTRIGNGLFTAALFQTNTDNEIVVDSSSGGRTSYKNAGKTRRQGMELGLDQQFGESWRLKAAWTWLDATYRTNVCDDASCNGNRIPGIARNMGYASFGYQPEQGWYAGSDIRYMSDIMANDENTAKAPSWTVVGLTTGYKWSYGRMDMDLFGRIDNLFDREYVGSVIVNESNGRYYEPAPGRNYGIGLNLAWRFE | not soluble
15 | AMAISDPQSSTRNELETGSSSACPKVIYIFARASTEPGNMGISAGPIVADALERIYGANDVWVQGVGGPYLADLASNFLPDGTSSAAINEARRLFTLANTKCPNAAIVSGGYSQGTAVMAGSISGLSTTIKNQIKGVVLFGYTKNLQNLGRIPNFETSKTEVYCDIADAVCYGTLFILPAHFLYQTDAAVAAPRFLQARIG | soluble
16 | AMEVHPISEFASPFEVFKCIERDFKVAGLLESIGGPQYKARYSVIAWSTNGYLKIHDDPVNILNGYLKDLKLADIPGLFKGGMIGYISYDAVRFWEKIRDLKPAAEDWPYAEFFTPDNIIIYDHNEGKVYVNADLSSVGGCGDIGEFKVSFYDESLNKNSYERIVSESLEYIRSGYIFQVVLSRFYRYIFSGDPLRIYYNLRRINPSPYMFYLKFDEKYLIGSSPELLFRVQDNIVETYPIAGTRPRGADQEEDLKLELELMNSEKDKAEHLMLVDLARNDLGKVCVPGTVKVPELMYVEKYSHVQHIVSKVIGTLKKKYNALNVLSATFPAGTVSGAPKPMAMNIIETLEEYKRGPYAGAVGFISADGNAEFAIAIRTAFLNKELLRIHAGAGIVYDSNPESEYFETEHKLKALKTAIGVR | soluble
17 | AMGQTVTTPLSLTLGHWKDVERIAHNQSVDVKKRRWVTFCSAEWPTFNVGWPRDGTFNRDLITQVKIKVFSPGPHGHPDQVPYIVTWEALAFDPPPWVKP | soluble
18 | ANADNYKNVINRTGAPQYMKDYDYDDHQRFNPFFDLGAWHGHLLPDGPNTMGGFPGVALLTEEYINFMASNFDRLTVWQDGKKVDFTLEAYSIPGALVQKLTAKDVQVEMTLRFATPRTSLLETKITSNKPLDLVWDGELLEKLEAKEGKPLSDKTIAGEYPDYQRKISATRDGLKVTFGKVRATWDLLTSGESEYQVHKSLPVQTEINGNRFTSKAHINGSTTLYTTYSHLLTAQEVSKEQMQIRDILARPAFYLTASQQRWEEYLKKGLTNPDATPEQTRVAVKAIETLNGNWRSPGGAVKFNTVTPSVTGRWFSGNQTWPWDTWKQAFAMAHFNPDIAKENIRAVFSWQIQPGDSVRPQDVGFVPDLIAWNLSPERGGDGGNWNERNTKPSLAAWSVMEVYNVTQDKTWVAEMYPKLVAYHDWWLRNRDHNGNGVPEYGATRDKAHNTESGEMLFTVKKGDKEETQSGLNNYARVVEKGQYDSLEIPAQVAASWESGRDDAAVFGFIDKEQLDKYVANGGKRSDWTVKFAENRSQDGTLLGYSLLQESVDQASYMYSDNHYLAEMATILGKPEEAKRYRQLAQQLADYINTCMFDPTTQFYYDVRIEDKPLANGCAGKPIVERGKGPEGWSPLFNGAATQANADAVVKVMLDPKEFNTFVPLGTAALTNPAFGADIYWRGRVWVDQFWFGLKGMERYGYRDDALKLADTFFRHAKGLTADGPIQENYNPLTGAQQGAPNFSWSAAHLYMLYNDFFRKQ | soluble
19 | ANNGAHRDMDLNTFIASAEAIAPYLHSFVSAGWESAGNPAAQLLSALRPIGIEAEQAMFAATQGVNTHKGMIFILGLICGSVGWLKANQLKIDAQHIGETIRQACQFLVIDELKAKRDCEPETAGERIYRQYGLTGARGEAASGLAMVMQHALPAYQACLTKGASTEQALWHTLLVLMANNNDSNLVSRGGLAGLHFVQEQAQQLLAKGGFLYQEIEQALTALDSVLIEKHLS | not soluble
20 | ANVEIYTKETCPYCHRAKALLSSKGVSFQELPIDGNAAKREEMIKRSGRTTVPQIFIDAQHIGGYDDLYALDARGGLDPLLK | soluble
21 | APFTLLYDLLHPYGFNRDQIREVATSLDNPPGASFFSSSHRLLRERDRLTVLPLSPKMEVPELFGLKIGDSFLDLPDGKQLSWQRGTPADLDLEGLRLPNTKLLLPLAFVESLQEELGVRRPQRGDHIHPYGMKGCKTVSRFFIDRHVPRSRREEAWLLCQGTEVVWIMGYAADRRFAIDELSDTEEYLLFSFGL | not soluble
22 | APTIPQGQGKVTFNNTVVDAPCSISQKSADQSIDFGQLSKSFLEAGGVSKPMDLDIELVNCDITAFKGGNGAKKGTVKLAFTGPIVNGHSDELDTNGGTGLAIVVQGAGKNVVFDGSEGDANTLKDGENVLHYTAVVKKSSAVGAAVTEGAFSAVANFNLTYQ | soluble
23 | APTSSNDTGKTVVAVTACPTGIAHTYMAAEKLQETANKLGVRIKVETNGSRGVENRLTDKEIAEADGVIIAADVQVDMPRFDGKHLIAKPVAAGIHKPEELIKEAISGNAPVYKAESGSEATEST | not soluble
24 | AQNSTVKINGLTLVQSSNQLNEAITGVTIDLKKAEIGKIVTLTVDDNKDQLTGLINEFIKQYNDTMTFLTNLTGYNNETKQGGVFQGDPQFRNLKLNLNKWATTPLANQEGPIRSLADLGIITNKQGLLEIKQDKFKTALDNHYKEIGALFAKTAKANDTGINVKSINSTVKSGTYDVVLTEFTPGVSMSGTIGGLSAISSDGITLTGSADLSGLSINVFSGSAGSRGQITVTDGIAVQLSSLLDAYIEIKGDLEQRKDQLNNQVKQLNKIQNEIDIRRKSIETRYLKQFTALDTLLSQLQS | soluble
